From patent publication US20200392247A1 (MCMASTER UNIVERSITY, published 2020)

Assays:
[1] = biological target: T1, recombinant HER-2 (UniProt P04626 23-652, limits assumed); assay: flow cytometry of engineered T cells stained with recombinant HER-2
T1 construct: also called recombinant HER-2 protein; HER-2 (erbB-2)
Procedure: The chimeric receptors were detected by incubation with recombinant HER-2. The Anti-HER-2 DARPin Tri-TAC was expressed well on the surface of the engineered T cells. However, its maximal surface expression was lower compared to the Anti-HER-2 DARPin CAR construct. […] T cells were activated with anti-CD3/anti-CD28 Dynabeads and engineered with lentiviruses encoding the Tri-TAC, CAR or no receptor (control). After 2 weeks, the CAR and control cultures had grown to similar numbers while the Tri-TAC cultures grew slightly more slowly.

[2] = biological target: β-Actin (UniProt P60709 1-375); assay: immunoprecipitation of the Tri-TAC with recombinant HER-2 beads from 293TM cells, Western blot
Procedure: (§1) FIG. 5 illustrates Lck interaction with the Tri-TAC. In FIG. 5A, 293TM cells were engineered to express Lck in combination with either the full-length Tri-TAC or a Tri-TAC variant that lacked the cytosolic domain that interacts with Lck. The Tri-TAC receptors were immunoprecipitated with beads carrying recombinant HER-2 protein. The precipitated Tri-TAC was measured by Western blot with an antibody against the myc tag. Co-precipitated Lck was identified by Western blot with an antibody against Lck. β-Actin was not pulled down and only detected in the supernatant (S). Both full length Tri-TAC and the Tri-TAC that lacked the cytosolic domain were efficiently pulled down and detected in the bound fraction (B). […] Greater amounts of Lck were co-immunopreciptated with the full-length Tri-TAC relative to the controls. […] Signal was corrected relative to the negative control.

[3] = biological target: T2, Lck (UniProt P06239 1-509, limits assumed); assay: co-immunoprecipitation with recombinant HER-2 beads from 293TM cells, Western blot for Lck
T2 construct: also called protein kinase Lck
T2 sequence (P06239 whole entry): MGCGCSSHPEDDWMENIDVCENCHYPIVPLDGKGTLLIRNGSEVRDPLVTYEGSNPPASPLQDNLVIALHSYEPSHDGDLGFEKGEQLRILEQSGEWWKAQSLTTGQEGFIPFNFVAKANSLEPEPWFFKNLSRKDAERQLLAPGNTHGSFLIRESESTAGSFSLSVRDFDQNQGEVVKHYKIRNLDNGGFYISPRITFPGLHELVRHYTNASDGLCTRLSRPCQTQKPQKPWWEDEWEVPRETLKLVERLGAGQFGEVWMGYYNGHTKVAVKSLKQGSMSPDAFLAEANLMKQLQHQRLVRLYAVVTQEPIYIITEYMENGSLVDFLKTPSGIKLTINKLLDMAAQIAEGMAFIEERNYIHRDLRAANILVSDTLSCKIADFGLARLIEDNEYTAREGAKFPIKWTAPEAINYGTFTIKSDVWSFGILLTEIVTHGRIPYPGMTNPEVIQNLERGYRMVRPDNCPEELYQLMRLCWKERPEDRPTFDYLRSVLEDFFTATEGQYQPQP
Procedure: as §1

B1: Anti-HER-2 DARPin Tri-TAC (full-length Trifunctional T cell-antigen coupler, configuration 1) (other)
chain: MSRGSDLGKKLLEAARAGQDDEVRILMANGADVNAKDEYGLTPLYLATAHGHLEIVEVLLKNGADVNAVDAIGFTPLHLAAFIGHLEIAEVLLKHGADVNAQDKFGKTAFDISIGNGNEDLAEILQKLNEQKLISEEDLNPGGGGGSGGGGSGGGGSGGGGSGSMDIQMTQTTSSLSASLGDRVTISCRASQDIRNYLNWYQQKPDGTVKLLIYYTSRLHSGVPSKFSGSGSGTDYSLTISNLEQEDIATYFCQQGNTLPWTFAGGTKLEIKGGGGSGGGGSGGGGSGGGGSEVQLQQSGPELVKPGASMKISCKASGYSFTGYTMNWVKQSHGKNLEWMGLINPYKGVSTYNQKFKDKATLTVDKSSSTAYMELLSLTSEDSAVYYCARSGYYGDSDWYFDVWGQGTTLTVFSTSGGGGSLESGQVLLESNIKVLPTWSTPVQPMALIVLGGVAGLLLFIGLGIFFCVRCRHRRRQAERMSQIKRLLSEKKTCQCPHRFQKTCSPI
notes: also called N-Darpin Tri TAC; full length Tri-TAC
binding result [1]: binds | binding result [2]: no binding

B2: Tri-TAC variant that lacked the cytosolic domain that interacts with Lck (other)
chain: MSRGSDLGKKLLEAARAGQDDEVRILMANGADVNAKDEYGLTPLYLATAHGHLEIVEVLLKNGADVNAVDAIGFTPLHLAAFIGHLEIAEVLLKHGADVNAQDKFGKTAFDISIGNGNEDLAEILQKLNEQKLISEEDLNPGGGGGSGGGGSGGGGSGGGGSGSMDIQMTQTTSSLSASLGDRVTISCRASQDIRNYLNWYQQKPDGTVKLLIYYTSRLHSGVPSKFSGSGSGTDYSLTISNLEQEDIATYFCQQGNTLPWTFAGGTKLEIKGGGGSGGGGSGGGGSGGGGSEVQLQQSGPELVKPGASMKISCKASGYSFTGYTMNWVKQSHGKNLEWMGLINPYKGVSTYNQKFKDKATLTVDKSSSTAYMELLSLTSEDSAVYYCARSGYYGDSDWYFDVWGQGTTLTVFSTSGGGGSLESGQVLLESNIKVLPTWSTPVQPMALIVLGGVAGLLLFIGLGIFF
notes: Expressed in 293TM cells; also called cytosolic deletion; TAC without cytosolic domain
binding result [3]: no binding | binding result [2]: no binding

B3: Anti-HER-2 DARPin CAR (CD28-based CAR) (other)
chain: MSRGSDLGKKLLEAARAGQDDEVRILMANGADVNAKDEYGLTPLYLATAHGHLEIVEVLLKNGADVNAVDAIGFTPLHLAAFIGHLEIAEVLLKHGADVNAQDKFGKTAFDISIGNGNEDLAEILQKLN
notes: Expressed on the surface of engineered human T cells; also called conventional CAR with the same DARPin; anti-HER-2 DARPin CD28-based CAR; not shown: rest of the CD28-based CAR (hinge, transmembrane and signalling domains)
binding result [1]: binds
